Assay results from patent publication US12618828B2, “Probe and method for detecting membrane-associated molecules in living cells” (priority 2021, dated 2026).

Assays:
Assay type in all cases: cell-based
[1] = target: T1, activated form of the small GTPase RhoA (RhoA(Q63L)) (Homo sapiens, UniProt P61586, Q63L); assay: Polarization microscopy of probe in HEK293 cells, with or without cotransfected RhoA(Q63L); details: cotransfection of RhoA(Q63L) plasmid, excitation polarization resolved single-photon confocal microscopy
T1 construct: expressed in transfected cells; host or cells: HEK293
Procedure: (§1) Prior to microscopy observations, mammalian cells (HEK293) were cultured at 37° C. under an atmosphere of 95% air, 5% CO2, in Dulbecco's modified Eagle's medium with Glutamax I and high glucose (Life Technologies), supplemented with 10% fetal bovine serum. Cells were plated on 8-chamber microscopy slides (p-Slides, Ibidi GmbH, Germany). Transfections were carried out using 0.2 μg of plasmid DNA and Lipofectamine 2000 (Life Technologies), according to the protocol of the manufacturer. In cotransfections, 0.2 μg of each of the plasmids were used. Microscopy experiments were carried out 48 h after transfection. […]
(§2) In excitation polarization resolved single-photon laser scanning confocal microscopy, the cells (in the multi-well cover slip) were observed using a single-photon laser scanning confocal microscope Olympus FV1200, modified for excitation-polarization resolved microscopy. […] Fluorescence of wavelengths in the range of 510-610 nm was separated from the excitation light by a long-pass dichroic mirror (DM405/488, Olympus, Japan), diffractive grating, and an adjustable slit, and detected by a photomultiplier. […]
(§3) The resulting images were deconvolved and quantitatively analyzed by following published procedures (Bondar A & al., Communications Biology. 2021 Feb. 12; 4(1):1-2.) that rely on publicly available software tools. […]

[2] = target: T2, activated form of the insulin receptor 1 (Homo sapiens, UniProt P06213); assay: Polarization microscopy of probe in HEK293 cells, insulin receptor 1 activated by serum insulin; details: cotransfection of insulin receptor 1 plasmid, activated by 5% fetal bovine serum containing natural levels of insulin, excitation polarization resolved single-photon confocal microscopy
T2 construct: His tag (named His6); expressed in transfected cells; host or cells: HEK293
Procedure: as §1, §2, §3

[3] = target: T3, activated form of the G-protein Gαi1 (Gαi1(Q204L)) (Homo sapiens, UniProt P63096, Q204L); assay: Polarization microscopy of probe in HEK293 cells, with or without cotransfected constitutively activated Gαi1(Q204L); details: cotransfection of Gαi1(Q204L) plasmid
T3 construct: expressed in transfected cells; host or cells: HEK293
Description: A protein (SEQ ID NO:5) that includes as an anchoring moiety a fragment of the protein h-Ras, a flexible peptide linker (amino acid sequence GSGGSGG (SEQ ID NO:1)), a monomeric enhanced green fluorescent protein (meGFP) as a fluorescent moiety, and an affinity binding peptide KB1753 known to bind the activated form of the G-protein Gαi1 (Johnston C A & al., Structure. 2005 Jul. 1; 13(7):1069-80), was encoded into a DNA sequence (SEQ ID NO:6) and cloned into a mammalian expression vector (pcDNA3.1(+)) under the control of the cytomegalovirus (CMV) promoter. The resulting DNA encoding the probe of invention was transfected into HEK293 cells either alone, or along with DNA encoding the target protein of the probe.
Prior to microscopy observations, mammalian cells (HEK293) were cultured at 37° C. under an atmosphere of 95% air, 5% CO2, in Dulbecco's modified Eagle's medium with Glutamax I and high glucose (Life Technologies), supplemented with 10% fetal bovine serum. Cells were plated on 8-chamber microscopy slides (p-Slides, Ibidi GmbH, Germany). Transfections were carried out using 0.2 μg of plasmid DNA and Lipofectamine 2000 (Life Technologies), according to the protocol of the manufacturer. In cotransfections, 0.2 μg of each of the plasmids were used. Microscopy experiments were carried out 48 h after transfection. Microscopy observations were performed at 37° C., maintained by a heated chamber (iBidi Heating System, iBidi).
The cells were observed by excitation polarization resolved single-photon laser scanning confocal microscopy, by excitation polarization resolved two-photon laser scanning microscopy, by excitation polarization resolved single-photon wide-field fluorescence microscopy, and by fluorescence polarization resolved single-photon laser scanning confocal microscopy.
In excitation polarization resolved single-photon laser scanning confocal microscopy, the cells (in the multi-well cover slip) were observed using a single-photon laser scanning confocal microscope Olympus FV1200, modified for excitation-polarization resolved microscopy. Specifically, the excitation laser beam was passed through an electrooptical polarization modulator (RPM-2P, Innovative Bioimaging, USA) synchronized with the function of the microscope so that the direction of polarization of the laser light was alternated between horizontal and vertical direction (within the image) between acquisition of individual pixels of the image. In order to observe the probes of invention containing the green fluorescent protein (GFP), 488 nm wavelength was used for excitation. Fluorescence of wavelengths in the range of 510-610 nm was separated from the excitation light by a long-pass dichroic mirror (DM405/488, Olympus, Japan), diffractive grating, and an adjustable slit, and detected by a photomultiplier. The samples were imaged by a 40× water immersion lens (UApoN340, NA1.15. Olympus, Japan).
The resulting images were deconvolved and quantitatively analyzed by following published procedures (Bondar A & al., Communications Biology. 2021 Feb. 12; 4(1):1-2.) that rely on publicly available software tools. Briefly, an acquired image, containing in different pixels information on fluorescence intensity excited with distinct polarizations of excitation light was deconvolved into two images, each containing fluorescence intensity excited by one polarization of the excitation light. After background subtraction, an image was generated to show, in each pixel, the base 2 logarithm of the ratio between the values of the corresponding pixels of the images containing information on fluorescence intensity excited with a horizontal and vertical polarization of excitation light. The resulting image was segmented to identify parts that correspond to the cell membrane. […]

GβGγ dimer = target: T4, GβGγ dimer (Homo sapiens, UniProt P59768+P62873); assay: Polarization microscopy of probe in HEK293 cells, with or without cotransfected GβGγ dimer; details: cotransfection of plasmids encoding the, excitation polarization resolved single-photon confocal microscopy
T4 construct: expressed in transfected cells; host or cells: HEK293
Procedure: as §1, §2, §3

[4] = target: T5, activated form of the μ-opioid receptor (Homo sapiens, UniProt P35372); assay: Polarization microscopy of probe in HEK293 cells, μ-opioid receptor activated by DAMGO; details: cotransfection of μ-opioid receptor plasmid and 10 μM DAMGO, excitation polarization resolved single-photon confocal microscopy
T5 construct: expressed in transfected cells; host or cells: HEK293
Procedure: as §1, §2, §3

[5] = target: T6, activated form of the G-protein Gα13 (Gα13(Q226L)) (Homo sapiens, UniProt Q14344, Q226L); assay: Polarization microscopy of probe in HEK293 cells, with or without cotransfected Gα13(Q226L); details: cotransfection of Gα13(Q226L) plasmid, excitation polarization resolved single-photon confocal microscopy
T6 construct: expressed in transfected cells; host or cells: HEK293
T6 sequence (Q14344 1-377 Q226L): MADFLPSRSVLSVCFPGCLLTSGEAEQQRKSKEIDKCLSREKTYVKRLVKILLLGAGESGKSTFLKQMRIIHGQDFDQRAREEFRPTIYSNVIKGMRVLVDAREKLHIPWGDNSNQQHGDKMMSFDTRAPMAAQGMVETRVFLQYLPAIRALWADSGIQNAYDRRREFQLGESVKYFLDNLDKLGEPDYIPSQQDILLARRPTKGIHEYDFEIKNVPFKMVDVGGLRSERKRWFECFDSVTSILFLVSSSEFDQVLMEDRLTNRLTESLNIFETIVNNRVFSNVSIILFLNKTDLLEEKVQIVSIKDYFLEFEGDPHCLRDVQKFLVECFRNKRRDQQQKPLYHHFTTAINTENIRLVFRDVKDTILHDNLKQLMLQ
Procedure: as §1, §2, §3

[6] = test system: activated form of the β2-adrenergic receptor; assay: Polarization microscopy of probe in HEK293 cells, β2-adrenergic receptor activated by norepinephrine; details: β2-adrenergic receptor is the probe's anchoring moiety, 10 uM norepinephrine, excitation polarization resolved single-photon confocal microscopy
Procedure: as §1, §2, §3

[7] = target: T7, activated form of the small GTPase Rac1 (Rac1(Q61L)) (Homo sapiens, UniProt P63000, Q61L); assay: Polarization microscopy of probe in HEK293 cells, with or without cotransfected Rac1(Q61L); details: cotransfection of Rac1(Q61L) plasmid, excitation polarization resolved single-photon confocal microscopy
T7 construct: expressed in transfected cells; host or cells: HEK293
Procedure: as §1, §2, §3

[8] = target: T8, activated form of the β2-adrenergic receptor (Homo sapiens, UniProt P07550, E27Q/G16R); assay: Polarization microscopy of probe in HEK293 cells, β2-adrenergic receptor activated by norepinephrine; details: cotransfection of β2-adrenergic receptor plasmid and 10 μM norepinephrine, excitation polarization resolved single-photon confocal microscopy
T8 construct: expressed in transfected cells; host or cells: HEK293
Procedure: as §1, §2, §3

activated form of Gαi1 = target: T9, activated form of Gαi1 (Homo sapiens, UniProt P63096); assay: Polarization microscopy of probe in HEK293 cells, Gαi1 activated through the α2-adrenergic receptor by norepinephrine; details: HEK293 cells cotransfected with Gαi1, Gβ1, Gγ2 and α2-adrenergic receptor; 10 μM norepinephrine; excitation polarization resolved single-photon confocal microscopy
T9 construct: expressed in transfected cells; host or cells: HEK293
Procedure: as §1, §2, §3

[9] = excitation polarization resolved single-photon laser scanning confocal microscopy

T3 sequence (P63096 whole entry Q204L): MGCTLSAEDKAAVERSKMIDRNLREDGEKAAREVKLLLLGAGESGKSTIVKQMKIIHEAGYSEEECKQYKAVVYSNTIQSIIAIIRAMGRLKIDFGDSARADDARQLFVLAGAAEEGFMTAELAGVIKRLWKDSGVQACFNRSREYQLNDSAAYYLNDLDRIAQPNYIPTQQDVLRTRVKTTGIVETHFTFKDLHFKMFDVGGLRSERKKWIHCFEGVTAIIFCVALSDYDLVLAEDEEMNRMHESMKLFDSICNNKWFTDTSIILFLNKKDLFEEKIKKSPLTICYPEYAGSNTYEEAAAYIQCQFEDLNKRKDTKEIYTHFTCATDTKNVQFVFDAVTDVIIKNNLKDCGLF
T5 sequence (P35372 whole entry): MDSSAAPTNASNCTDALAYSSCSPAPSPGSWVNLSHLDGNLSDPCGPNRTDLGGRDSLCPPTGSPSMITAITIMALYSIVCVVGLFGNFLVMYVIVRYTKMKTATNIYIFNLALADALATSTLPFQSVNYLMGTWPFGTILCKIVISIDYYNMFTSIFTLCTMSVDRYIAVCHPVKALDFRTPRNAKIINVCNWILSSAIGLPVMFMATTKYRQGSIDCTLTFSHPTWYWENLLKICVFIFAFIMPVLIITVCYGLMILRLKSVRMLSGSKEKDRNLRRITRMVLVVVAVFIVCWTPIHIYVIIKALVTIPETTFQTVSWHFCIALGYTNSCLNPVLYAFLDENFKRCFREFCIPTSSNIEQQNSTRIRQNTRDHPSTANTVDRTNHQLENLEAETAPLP
T1 sequence (P61586 whole entry Q63L): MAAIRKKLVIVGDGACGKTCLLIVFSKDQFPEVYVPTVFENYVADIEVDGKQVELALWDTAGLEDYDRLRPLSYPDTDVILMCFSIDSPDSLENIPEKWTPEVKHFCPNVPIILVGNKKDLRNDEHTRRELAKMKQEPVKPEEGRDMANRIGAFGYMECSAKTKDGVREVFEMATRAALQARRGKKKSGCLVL
T9 sequence (P63096 whole entry): as the sequence (P63096 whole entry Q204L) above, with L204Q counted along it
T4 sequence (P62873 2-340 limits assumed): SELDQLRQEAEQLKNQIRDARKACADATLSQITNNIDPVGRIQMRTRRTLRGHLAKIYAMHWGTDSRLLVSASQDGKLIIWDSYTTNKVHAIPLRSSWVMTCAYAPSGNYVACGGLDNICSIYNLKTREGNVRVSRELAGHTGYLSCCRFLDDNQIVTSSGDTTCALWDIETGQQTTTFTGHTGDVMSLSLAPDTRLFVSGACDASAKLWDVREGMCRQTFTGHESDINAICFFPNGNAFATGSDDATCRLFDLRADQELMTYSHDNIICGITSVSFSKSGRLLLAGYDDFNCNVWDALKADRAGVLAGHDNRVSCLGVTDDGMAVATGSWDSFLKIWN
T4 sequence (P59768 2-68 limits assumed): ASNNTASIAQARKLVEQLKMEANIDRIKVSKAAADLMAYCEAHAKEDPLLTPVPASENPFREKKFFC
T2 sequence (P06213 with tags, fused parts or gaps isoform P06213-2): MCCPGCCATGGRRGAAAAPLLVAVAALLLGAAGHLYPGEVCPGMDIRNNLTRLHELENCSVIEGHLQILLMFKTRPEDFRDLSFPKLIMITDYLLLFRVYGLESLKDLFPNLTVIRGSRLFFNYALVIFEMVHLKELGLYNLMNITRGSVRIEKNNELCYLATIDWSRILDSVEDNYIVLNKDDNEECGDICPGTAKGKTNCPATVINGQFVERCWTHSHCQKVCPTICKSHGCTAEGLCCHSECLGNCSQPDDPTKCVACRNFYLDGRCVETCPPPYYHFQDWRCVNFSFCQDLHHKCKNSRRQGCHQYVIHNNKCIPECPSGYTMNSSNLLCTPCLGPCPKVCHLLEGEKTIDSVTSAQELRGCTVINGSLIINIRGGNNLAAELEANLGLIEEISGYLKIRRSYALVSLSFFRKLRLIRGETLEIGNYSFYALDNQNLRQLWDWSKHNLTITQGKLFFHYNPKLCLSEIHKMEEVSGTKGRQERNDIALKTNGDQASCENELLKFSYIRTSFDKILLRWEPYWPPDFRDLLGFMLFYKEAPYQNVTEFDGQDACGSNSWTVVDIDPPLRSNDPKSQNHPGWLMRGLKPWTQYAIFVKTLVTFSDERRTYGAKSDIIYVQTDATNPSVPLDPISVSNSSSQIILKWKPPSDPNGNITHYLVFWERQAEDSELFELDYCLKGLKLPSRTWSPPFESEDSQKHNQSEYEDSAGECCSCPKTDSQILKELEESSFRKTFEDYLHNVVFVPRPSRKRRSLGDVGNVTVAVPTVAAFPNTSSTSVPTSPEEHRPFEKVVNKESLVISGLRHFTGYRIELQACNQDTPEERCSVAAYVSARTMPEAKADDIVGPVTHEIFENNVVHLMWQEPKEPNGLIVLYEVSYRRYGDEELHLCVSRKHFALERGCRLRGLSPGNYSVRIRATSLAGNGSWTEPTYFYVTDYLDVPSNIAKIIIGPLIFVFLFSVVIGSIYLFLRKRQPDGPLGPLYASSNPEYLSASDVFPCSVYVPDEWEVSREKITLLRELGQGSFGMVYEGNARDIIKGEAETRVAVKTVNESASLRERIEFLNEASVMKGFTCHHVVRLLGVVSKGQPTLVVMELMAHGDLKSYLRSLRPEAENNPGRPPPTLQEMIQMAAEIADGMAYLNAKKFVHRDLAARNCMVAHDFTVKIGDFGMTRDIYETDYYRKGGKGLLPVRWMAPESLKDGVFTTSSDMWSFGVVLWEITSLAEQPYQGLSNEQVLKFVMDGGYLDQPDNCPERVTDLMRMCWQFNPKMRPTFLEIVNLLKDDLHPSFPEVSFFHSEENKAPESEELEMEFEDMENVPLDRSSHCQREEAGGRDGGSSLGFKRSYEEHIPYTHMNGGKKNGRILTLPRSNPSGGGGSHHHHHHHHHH

rhotekin-meGFP-GSGGSGG-hRas [Example 20]
linear dichroism of the fluorescent moiety of the probe in presence of its target molecule compared with absence [1]: statistically significantly higher

GAP43-SSGSSGTG-meGFP-IRS1 [Example 22]
linear dichroism of the fluorescent moiety of the probe in presence of its target molecule compared with absence [2]: statistically significantly lower

KB1753-meGFP-GSGGSGG-kRas [Example 3]
linear dichroism of the fluorescent moiety of the probe in presence of its target molecule compared with absence [3, 9]: statistically significantly higher

GAP43-SSGSSGTG-meGFP-GRK2ct [Example 17]
linear dichroism of the fluorescent moiety of the probe in presence of its target molecule compared with absence (GβGγ dimer): statistically significantly lower

NB33-meGFP-GSGGSGG-hRas [Example 15]
linear dichroism of the fluorescent moiety of the probe in presence of its target molecule compared with absence [4]: statistically significantly lower

GAP43-SSGSSGTG-meGFP-PRGrh [Example 19]
linear dichroism of the fluorescent moiety of the probe in presence of its target molecule compared with absence [5]: statistically significantly lower

β2AR-SSGSSGTG-meGFP-NB80 [Example 14]
linear dichroism of the fluorescent moiety of the probe in presence of its target molecule compared with absence [6]: statistically significantly higher

KB1753-cpmTurquoise2-GSGGSGG-hRas [Example 9]
linear dichroism of the fluorescent moiety of the probe in presence of its target molecule compared with absence [3, 9]: statistically significantly higher

KB1753-meGFP-GS24-hRas [Example 6]
linear dichroism of the fluorescent moiety of the probe in presence of its target molecule compared with absence [3, 9]: statistically significantly higher

GAP43-SSGSSGTG-meGFP-Δ6-PAK1 [Example 21]
linear dichroism of the fluorescent moiety of the probe in presence of its target molecule compared with absence [7]: statistically significantly lower

GAP43-SSGSSGTG-meGFP-KB1753 [Example 4]
linear dichroism of the fluorescent moiety of the probe in presence of its target molecule compared with absence [3, 9]: statistically significantly higher

IL4R-SSGSSGTG-meGFP-KB1753 [Example 5]
linear dichroism of the fluorescent moiety of the probe in presence of its target molecule compared with absence [3, 9]: statistically significantly higher

GAP43-SSGSSGTG-meGFP-NB33 [Example 16]
linear dichroism of the fluorescent moiety of the probe in presence of its target molecule compared with absence [4]: statistically significantly lower

NB80-meGFP-GSGGSGG-hRas [Example 13]
linear dichroism of the fluorescent moiety of the probe in presence of its target molecule compared with absence [8]: statistically significantly lower

KB1753-meGFP-GSGGSGG-hRas [Example 1]
linear dichroism of the fluorescent moiety of the probe in presence of its target molecule compared with absence ([3]; excitation polarization resolved single-photon confocal, two-photon and wide-field microscopy, FIG. 2A): statistically significantly higher
fluorescence polarization of the fluorescent moiety of the probe in presence of its target molecule compared with absence ([3]; fluorescence polarization resolved single-photon laser scanning confocal microscopy, FIG. 2A): statistically significantly higher
linear dichroism of the fluorescent moiety of the probe in presence of activated Gαi1 compared with absence (activated form of Gαi1): statistically significantly higher
